Measured values taken from PMC3601739 (Chemical communications (Cambridge, England), 2013).

Columns and labels:
HIV-1 RRE IIB RNA [1] = assay: Electrophoretic mobility shift assay; type: binding; details: read-out: Kd (dissociation constant) determined through EMSA; EMSA with RRE IIB
HIV-1 RRE IIB RNA [2] = assay: Dot blot assay, 32P-labeled RRE IIB titrated with BPBAs; type: binding; details: read-out: Kd (dissociation constant), 32P-labeled RRE IIB titrated with increasing concentration of peptide, average of at least three experiments
BPBA2 (synthetic) [3] = assay: dot blot; details: not stated in the material (details in ESI)
BPBA1.2 (synthetic) = assay: dot blot; details: not stated in the material (details in ESI)
BPBA8 (synthetic) = assay: dot blot; details: not stated in the material (details in ESI)
BPBA3 (synthetic) [4] = assay: dot blot; details: not stated in the material (details in ESI)
BPBA1 (synthetic) [5] = assay: dot blot; details: not stated in the material (details in ESI)
BPBA6 (synthetic) = assay: dot blot; details: not stated in the material (details in ESI)
BPBA4 (synthetic) = assay: dot blot; details: not stated in the material (details in ESI)
BPBA5 (synthetic) = assay: dot blot; details: not stated in the material (details in ESI)
BPBA7 (synthetic) = assay: dot blot; details: not stated in the material (details in ESI)
BPBA2 (synthetic) [6] = assay: EMSA; details: not stated in the material (details in ESI)
BPBA3 (synthetic) [7] = assay: EMSA; details: not stated in the material (details in ESI)
BPBA1 (synthetic) [8] = assay: EMSA; details: not stated in the material (details in ESI)

For (FBPAYFBPA)2 * NKSY [BPBA3], the Kd (HIV-1 RRE IIB RNA [1]) was 4.6 ± 2.4 µM and the Kd (HIV-1 RRE IIB RNA [2]) was 8.7 ± 2.3 µM.

(KBBAKFBPA)2 * KBBAKKY [BPBA2] gave a Kd (HIV-1 RRE IIB RNA [2]) of 3.3 ± 1.2 µM.

For (KBBAYK)2 * HKKY [BPBA8], the Kd (HIV-1 RRE IIB RNA [2]) was 86.5 ± 10 µM.

(KKBBAF)2 * KKWY [BPBA5] was tested, and the Kd (HIV-1 RRE IIB RNA [2]) was 27.2 ± 6.9 µM.

(KKBBAK)2 * KLKY [BPBA7] gave a Kd (HIV-1 RRE IIB RNA [2]) of 58.4 ± 4 µM.

For (KKKBBA)2 * FBPATSY [BPBA4], the Kd (HIV-1 RRE IIB RNA [2]) was 26.8 ± 4.4 µM.

Substance (WKK)2 * KBBAYWY [BPBA1] has a Kd (HIV-1 RRE IIB RNA [2]) of 1.4 ± 0.4 µM.

Substance HIV-1 RRE IIB RNA has a Kd (BPBA2 (synthetic) [3]) of 3.3 µM, a Kd (BPBA1.2 (synthetic)) of 0.8 µM and a Kd (BPBA8 (synthetic)) of 86.5 µM. For the same substance, the Kd (BPBA3 (synthetic) [4]) was 8.7 µM, the Kd (BPBA1 (synthetic) [5]) was 1.4 µM and the Kd (BPBA6 (synthetic)) was 28.5 µM. The Kd (BPBA4 (synthetic)) was 26.8 µM, the Kd (BPBA5 (synthetic)) was 27.2 µM and the Kd (BPBA7 (synthetic)) was 58.4 µM. It also gave a Kd (BPBA2 (synthetic) [6]) of 0.6 µM, a Kd (BPBA3 (synthetic) [7]) of 4.6 µM and a Kd (BPBA1 (synthetic) [8]) of 0.3 µM.
